Laboratory results taken from the nanobody polyreactivity screen of Harvey et al. (2022).

Experiment: yeast display, Sf9 membrane polyspecificity reagent, FACS + sequencing; frameworks hold sequencing errors
In short: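 Using colony PCR, genes from sorted yeast display clones were amplified, then sequenced on MiSeq at 2 × 250 and filtered by CDR length. The clones had been stained with 10% biotinylated, detergent-solubilized Sf9 membrane reagent for 1 hour at 4 °C and sorted by FACS into low and high (top ~1%) gates on anti-HA and streptavidin fluorescence. Polyreactivity labels come from the gate of origin.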

Row | Sequence | polyreactivity (PSR sort gate)
1 | QVQLVESGGGLVQAGGSLRLSCAASGSIFRAYAMGWYRQAPGKERELVAAITGNGARTYYADSVKGRFTISRDNAKNTVYLQMNSLKPEDTAVYYCAKRGNRQHRWWYDYWGQGTQVTVSS | low polyreactivity
2 | QVQLVESGGGLVQAGGSLRLSCAASGNTFVRNVMGWYRQAPGKERELVAAITWRSVRTYYADSVKGRFTISRDTAKNTVYLQMNSLKPEDTAVYYCAAASASRHGEYDYWGQGTQVTVSS | low polyreactivity
3 | QVQLVESGGGLVQAGVSLRLSCAASGGILYWYAMGWSRQAPGKERELVAAIDWTGGSTYYADSVKGRFTISRDNAKNTVYLQMNSLKPEDTAVYYCAADSYWGSGVVPGYDYWGQGTQVTVSS | low polyreactivity
4 | QVQLVESGGGLVQAGGSLRLSCAASGRTFVHYAMGWYRPAPGKERELVAAITWNGGRTYYADSVKGRFTISRDNAKNTVYLQMNSLKPEDTAVYYCAADGKYYHRRPGWPIYDYWGQGTQVTVSS | high polyreactivity
5 | QVQLVESGGALVQARGSLRLSCAASGRTFVWYAMGWYRQAPGKERELVAAITLSGGSTYYADSVKGRFTISRDNAKNTVYLQMTSLKPEDTAVYYCAADGTYRPEDYDYWGQGTKVTVSS | low polyreactivity
6 | RVQLVESGGGLVQAGGRLRLSCAASRFTFIVNPMGWYRQAPGKERELVAAISWNGGSTYYADSVKGRFTISRDNAKNTVYLQMNSLKPEDTAVYYCAVLYRSEYDWGQGTQVTVSS | low polyreactivity
7 | QVQLVESGGGLVQAGGSLRLICAASGRTFDNYAMGWYRQAPGKEREFVAAITTGVGSTYADSVKGRFTISRDNAKNTVYLQMNSLKPEDTAVYYCAGDSYWLFDAYDYWGQGTKVTVSS | low polyreactivity
8 | QFQLVESGGGLVQAGGSLRLSCAASGFIFKSNAMGWYRQAPGKERELVAAITKRGGSTYYADSVKGRFTISGDYAKNTVYLQMNSLKPEDTAVYYCAVRKPYSRYTVNYDSWGQGTQVTVSS | high polyreactivity
9 | QVQVVESGGGLVQAGGSLRVICAASGSTFYRNAMGWYRQAPGKEWELVAAITRSASSTYYADSVKGRFTISRDNAKNNVDLQLNSLKPEDTAVYYCAAKRRVSHLDYWGQGTQVNVSS | high polyreactivity
10 | QVQLVESGGGLDQAGGSLRLSCAASGYTYGTYDMRWYRQAPGKERELVAAISIGGSTNYADSVKGRFTISRDNAKNTVYLQMNSLKPEDTAVYYCAAEVNVGTLLLSVIVEDGDYWGQGTQVTVSS | low polyreactivity
11 | QVQLVESGGGLVQAGGSLRLSCAASGSIFSYYAMGWSRQAPGKERELVATISWSGGSTYYADSVKGRFTISRDNAKNTVYLQMNSLKPEDTAVYYCAARIWTGRGRKLGYGYDYWGQGTQVTVSS | low polyreactivity
12 | QVQLVESGGGLVQAGGSLRLSCAASGSTLTYNAMGWYRQAPGKERELVAAIDWDGDTTYYADSVKGRFTISRDNAKNTVYLQMNSLKPEDTAVYYCAAEFYSLGKAIYEYWGQGTQVTVSS | high polyreactivity
13 | QVQLVDSGGGLVQAGGSLRLSCAASGFIFVDYVMGWSRQAPGKERELVAAITRGGSTNYADSVKGRFTISRDNAKNTVYLQMNSLKPEDTAVYYCAVRWYRKYNYWGQGTQVTVSS | high polyreactivity
14 | QVQLVESGGGLVQAGGSLRLSCAASGTFGVYAMGWYRQSPGKERELVAVITDSGGTNYADSVKGRFTISRDNAKNTVYLQMNSLKPEDTAVYYCNTDAGDYYGENYWGQGTQVTVSS | low polyreactivity
15 | QVQIVESGGGLVQAGGSLRLSCAAYGSIFVRNVMGWYRQAPGKERELVATIRYRGGSTYYADSVKGRFTISRDNAKNTVYLQMNSLKPEDTAVYYCNARYLWADEYYYWGQGTQVTVSS | low polyreactivity
16 | QVQLVESGGGLVQAGGSLRLSCAASGRSFSRNAMGWYRQAPGTERELVAGISSGGSTNYADSVKGRFTISPDTAKNTVYIQMNSLKPEDTAVYYCAKDSAEFVTRYDYWGQGTQVTLSS | low polyreactivity
17 | QVQLVESGGGLVHAGGSLRLSCAASGSNFNINAMGWYRQAPGKERELVAAITTSGGRTYYSDSVKGRFTISRDNAKNTVYLQMNSLKPEDTAVYYCNARHLPGSRSWRWITYDYWGQGTQVTVSS | low polyreactivity
18 | QVQLVESGGGLVQAGGSLRLSCAASGNTFAGNAMGWYRHAPRKERELVAAISRSGVTTRYGDSVKGRFTISRDNAKNTVYLQMNSLKPEDTAVYYCNAVPRLRQTREYWGQGTQVTVSS | high polyreactivity
19 | QVQLVESGGGLVQAGGSLRLSCAASGFIFGLYAMGWYRQAPGKERELVATISWDGGSTYYADSVKGRFTISRDNAKNTVYLQMNSLKPEDTAVYYCNARYIGGYGYWGQGTQVTVSS | low polyreactivity
20 | QVQLVESGGGLVQAGGSLRLSCAASGSTLSEYAMGWYRQAPGKERELVAAISWSGGSTYYADSVKGRFTISRDNAKNTVYLQMNSLKPEDTAVYDCAAKRYSSKRGLDYWGQGTHVTVSS | high polyreactivity
21 | QVQLVESGGGLVQAGGSLRLSCAASGLIFSNNAMGWYRQAPGKERELVAAISKSGGGTSYADSVKGRFTISRDNAKNTVYLQMNSLKPEDTAVYYCAARFRQFRVDYWGQGTQVTVSS | high polyreactivity
22 | QVQLVESGGGLVQAGGSLRLSCAASGINFRYYAMGWYRQAPGKERELVARISTRGGSTYYADSVKGRFTISRDNAKNTVYLQMNSLKPEDTAVYYCAAVNGLYYHKYGYYWGQGTQVTVSS | high polyreactivity

Row | Sequence | polyreactivity (PSR sort gate)
23 | QVNLVDSGGRLVQAGGSLRLSCAASGRIFYRYAMGWYIQAPGKERELVAAISRRGGSTYYADSVKGRFTISRDNAKNTVYLQMNSLNPEDTAVYYCNVYRSAFSYDSWGQCTQVTVSS | high polyreactivity
24 | QVQLVESGGGLVQAGGSLRLSCAASGIIFDYYAMGWYRPAPGKERELVAAINSGSGSTYYADSVKGRFTISRDNAKNTVYLQMNSLKPEDTAVYYCAADGLSATLTWYSYDYWGQGTQVTVSS | low polyreactivity
25 | QVQLVESGGCLVQAGGSLRLSCAASGITYLEYAMGWYIQAPGKERELVATINSGGSTNYADSVKGRFTISRDNAKNTVYLQMNSLKPEDTAVYYCAAVVSDYVWRYEYWGQGTQVTVSS | low polyreactivity
26 | QVQLVESGGGLVQAGGSLRLSCAASGFTFAFYTMGWYRQAPGKERELVAGITRSGTNTYYADSVKGRFTISRDNAKNTVYLQMNSLKPEDTAVYYCAAAIRPGMDYWGQGTQVTVSS | high polyreactivity
27 | QVQHVESGGGLVQAGGSLRLSCAASGFTFTAYAMGWYRQAPGKERELVAAISYRGGRTNYAYSVKGRFTISRDNAKNTVYLQMNSLKPEDTAVYYCAARPRISTREMDYWGQGTKVTVSS | high polyreactivity
28 | QVQLVESGGGLVQAGGSLRLSCAAYGSNFTSNAMGWYRQAPGKERELVAVITIGGSTNYADSVKGRFTISRDNAKNTVYLQMNSLKPEDTAVYYCAADDDYSRILQGDQSDDYWGQGSQVTVSS | low polyreactivity
29 | QVQLVESGGGLVQAGGSLRLSCAASGFTFTYNDMGWYRQAPGKEREFVAAISSTGGSTYYADSVKGRFTISRDNAKNTVYLQMNSLIPEDTAVYYCAAEDSWYWDAWFDYWGQGTQVTVSS | low polyreactivity
30 | QVQLVESGGGLVQAGGSLRLSCAASGITFSYYAMGWYRQAPGKERELVAAISRTGTSTYYADSVKGRFTISRDNAKNTVYLQMKSLKPEDTAVYDCAAVPRHPYHDKYDYWGQGTQVTVSS | high polyreactivity
31 | QVQLVESGGGLVQAGGSLRLSCAASGRIFPYYAMGWYRQAPGKERELVATITSGGSTYYADSVKGRFTISRDNAKNTVYLQMNSLKPEDTAVYYCAARYPSIYFYRYDYWGQGNQVTVSS | high polyreactivity
32 | QVQLVESGGGLVQAGGSLRLSCAASGRTFQDNAMGWYRQAPGKEREFVAAISWSGDSTYYADSVKGRFTISRDNAKNTVYLQMNSLKPEDTAVYYCAASRVIPSYPYYKYDYWGQGTQVTVSS | low polyreactivity
33 | QVQLVESGGGLVQAGGSLRLSCAASGSIFSVYAMGWYIQAPGKEREFVASISGGSGRTYYADSVKGRFTISRDNAKNTVYLQMNSLKPEDTAVYYCAAAYWAYDTGKMGYWGQGTQVTVSS | low polyreactivity
34 | QVHLVESGGGLVQAGGSLRLSCAASGSIFRYNVKAWYRQAPGNERQFVAANTARGGSTYYPESVKVRFTISRDYAKNTVYRQMISMKPEDTAVYYCATVSQQSRSLGIDRIYYWGQGTQVTVSS | high polyreactivity
35 | QVQLVESGGGLVQAGGSLRLSCAASGRIFTDNAMGWYRQEPGKERELVAAIRGSGSSTYYADSVKGRFTISRDNAKNTVYLQMNSLKPEDTAVYYCAARRAVYRGNYWGQGTQVTVSS | high polyreactivity
36 | QLQLVESGGGLVQAGGSLRISCAASGFTFRYYAMGWYRQAPGKERKFVAGIDFGAITNYADSVKGRFTISRDNAKNTEYLQMSSLKPEDTAVYYCAAGVYDWYAYDYWGQGTQVTVSS | high polyreactivity
37 | QVQLVESGGGLVQAGGSLRLSCAAYGYIFLRNAMGWYRQAPGKERELVAAIRRTGGSTYYADSVKGRFTISRDNAKNTVYLQMNSLKPEDTAVYYCAKRSYTGYEYWGQGTQVTVSS | low polyreactivity
38 | QVQLVESGGGLVQAGGSLRLSCAASGRTFVVYAMGWYRQAPGKERELVAAITSSGNTYYADSVKGRFTISRDNAKNTVYLQMNSLKPEDTAVYYCAAYSLYGYDYWGQGTQVTVSS | low polyreactivity
39 | QVQLVESGGGLVQAGGSLRLSCAASGRTFSGNTMGWYRQAPGKEREFVATISQSGTITSYADSVKGRFTISRDNAKNTVYLQMNSLKPEDTAVYYCAARAVYYSSRGWITRFDYWGQGTQVTVSS | high polyreactivity
40 | QVQLVESGGGLVQAGGSLRISCAASGSTINRYAMGWYRQAPWKERELVAAINWRGSRTYYADSVKGRFTISRDNAKNTVYLQMNSLKPEDTAVYDCAASLGANGFQGRMYYWGQGTQVTVSS | low polyreactivity
41 | QVQLVESVGGLVQAGGSLRLICAASGSIFSRYAMGWYRQAPGKEREFVARITQRGGSTYYADSVKGRFTISRDNAKNTVYLQRQSLKPEDTAVYYCNADHYRRLLAEDYWGQGTQVTVSS | low polyreactivity
42 | QVQLVESGGGLVQAGGSLRLSCAASGSIFSLYAMGCYIQAHGKERELVAAISRGGSTNYADSVKGRFTISRDNAKNTVYLQMNSLKPEDTAVDYCNAGFGVRRKHITFYTWYDYWGQGTQVTVSS | low polyreactivity
43 | QVQLLESGGGLVQAGGSLRLSCAASGRIFKFKAMGWYRQAPGKERQLVAATWSGGRTSYADSVKGRITISRDNAKYTVYLQMNSLKPEDTAVYYCAARWFDGDWDYWYDYWGQGTQVTVSS | low polyreactivity
